These results are taken from article PMC12704277.

Test [1] has as its target NCP-3′linker (nucleosome core particle with H3K9me3 and a single hemimethylated CpG site in the 3′-linker DNA) (human) (UniProt P04908). Briefly: mass photometry; UHRF1 and NCP mixed at a UHRF1–NCP ratio of 1:4, on ice 30 min; final 25 nM in 20 mM Tris–HCl pH 7.0, 150 mM NaCl.
Test [2] has as its target NCP-5′linker (nucleosome core particle with H3K9me3 and a single hemimethylated CpG site in the 5′-linker DNA) (human) (UniProt P04908). The test is described as above.
For test [3], the target named is NCP-601 (nucleosome core particle with H3K9me3 and a single hemimethylated CpG site within the 3′-Widom 601 sequence) (human) (UniProt P04908). The description is as above.
For test [4], the target named is NCP-3′linker (nucleosome core particle with H3K9me3 and a single hemimethylated CpG site in the 3′-linker DNA) (human) (UniProt P04908). Nature of the test: thermal stability assay (SYPRO Orange); 0.2 mg/ml protein; 20 mM Tris–HCl pH 7.5, 150 mM NaCl, 1 mM DTT; heated from 25 °C to 90 °C.
Test [5] addresses NCP-5′linker (nucleosome core particle with H3K9me3 and a single hemimethylated CpG site in the 5′-linker DNA) (human) (UniProt P04908). The description is as above.
In test [6] the target is NCP-601 (nucleosome core particle with H3K9me3 and a single hemimethylated CpG site within the 3′-Widom 601 sequence) (human) (UniProt P04908). The test is described as above.

The term stoichiometry N denotes the number of molecules, sites or subunits per partner or assembly.

Consider “UHRF1 (ubiquitin-like with plant homeodomain and RING finger domain 1), full-length human, WT (from UniProt Q96T88 1-793) (enzyme)”, for which the stoichiometry N in test [1], in test [2] and in test [3] was 1 in each case. Also, the Tm (denaturation temperature of UHRF1 bound to the NCP) amounted to 44.8 °C in test [4], 44.2 °C in test [5] and 42.8 °C in test [6].
